We go through three molecules from PMC3227653 (2011).

For this test, the target named is Clostridium difficile toxin A (C. difficile, UniProt P16154 1-2710). The test is described as follows: SPR. On the technique in general: SPR reads the build-up and loss of mass on a sensor chip optically.

B1: pepsin-treated A5.1m (VHH)
VHH: QVKLEESGGGLVQAGGSLRLSCAASGRTFSMYRMGWFRQAPGKEREFVCVITRNGSSTYYADSVKGRFTCSRDNAKNTVYLQMNSLKPEDTALYYCAATSGSSYLDAAHVYDYWGQGTQVTVSS
A word on the koff: it is the rate constant with which the complex falls apart. The low end stands for slow dissociation, the high end for fast dissociation. The molecule B1 had a koff of 0.013 s⁻¹.

B2: pepsin-treated A4.2m (VHH)
VHH: QVKLEESGGGLVQAGGSLRLSCAASGRTFNTLSMGWFRQAPGKEREFVCAVSRSGGSTYYADSVKGRFTCSRDNAKNTVYLQMNSLKPEDTAVYYCAAAATKSNTTAYRLSFDYWGQGTQVTVSS
Regarding B2, the off-rate constant (koff) was 0.016 s⁻¹.

B3: pepsin-treated A26.8m (VHH)
VHH: QVKLEESGGGLVQAGGSLRLSCAASERTFSRYPVAWFRQAPGAEREFVCVISSTGTSTYYADSVKGRFTCSRDNAKVTVYLQMNNLKREDTAVYFCAVNSQRTRLQDPNEYDYWGQGTQVTVSS
In the case of B3, the koff is 0.019 s⁻¹.
